The assay deals with asialoglycoprotein receptor on Hep G2 cells (human (Hep G2 cells)) (UniProt P07306). The experiment in a line: cell-based or functional assay.
Chain of UniProt P07306 (P07306 whole entry): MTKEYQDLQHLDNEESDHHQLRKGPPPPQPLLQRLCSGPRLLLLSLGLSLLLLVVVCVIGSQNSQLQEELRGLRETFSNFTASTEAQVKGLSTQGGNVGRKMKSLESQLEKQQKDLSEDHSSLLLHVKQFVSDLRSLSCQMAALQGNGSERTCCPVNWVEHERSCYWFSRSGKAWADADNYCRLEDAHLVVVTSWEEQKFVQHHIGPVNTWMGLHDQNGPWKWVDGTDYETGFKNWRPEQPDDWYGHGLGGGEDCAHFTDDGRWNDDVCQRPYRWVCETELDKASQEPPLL

Take [YEE(ah-GalNAc)3]-SMCC-AET-pU^mpT7: the cell association (uptake) by Hep G2 cells, 1 uM conjugate alone, 37 C, two hours (pmol per 10^6 cells) worked out at 7.8; the cell association (uptake) by Hep G2 cells, 1 uM conjugate with a 100-fold excess of free 5, 37 C, two hours (pmol per 10^6 cells) was determined as 0.42; the uptake by Hep G2 cells, 1 uM conjugate, 37 C, about 24 hours (pmol per 10^6 cells) came out at 26.6.

The record behind these values is patent US20060183886A1.
